Experimental data: patent US20150374794A1 (Novo Nordisk, published 2015)
Numbered stars: 1 amine (or outer) side, 2 acyl side, 3 side chain; on linkers, the order of the positions; unused ones are H or OH. Square brackets hold non-standard residues; d marks the D form. Side chains are listed from the residue outwards. Ends that are not written are not given here. * marks the point of attachment. C18 diacid = O=C(O)CCCCCCCCCCCCCCCCC(=O)*; γGlu = O=C(O)[C@H](CCC(=O)[*:2])N[*:1]; AEEA = NCCOCCOCC(=O)O; Aib = CC(C)(N)C(=O)O

Columns and labels:
human glucagon receptor = human glucagon receptor (human, UniProt P47871 26-477); assay: cell-based or functional assay
human GLP-1 receptor [1] = target: T1, human GLP-1 receptor (human, UniProt P43220 24-463); assay: cell-based or functional assay
human GLP-1 receptor [2] = target: T1, human GLP-1 receptor; assay: displacement of 125I-GLP-1(7-36)NH2, membranes with human GLP-1R, SPA
Method: The receptor binding of each compound to the human GLP-1 receptor was measured in a displacement binding assay. […] Each derivative was added in a series of concentrations to isolated membranes containing the human GLP-1 receptor and displacement of the labelled ligand was monitored. The receptor binding was reported as the concentration at which half of the labelled ligand was displaced from the receptor, the IC₅₀ value.

human glucagon receptor, sequence (P47871 26-477): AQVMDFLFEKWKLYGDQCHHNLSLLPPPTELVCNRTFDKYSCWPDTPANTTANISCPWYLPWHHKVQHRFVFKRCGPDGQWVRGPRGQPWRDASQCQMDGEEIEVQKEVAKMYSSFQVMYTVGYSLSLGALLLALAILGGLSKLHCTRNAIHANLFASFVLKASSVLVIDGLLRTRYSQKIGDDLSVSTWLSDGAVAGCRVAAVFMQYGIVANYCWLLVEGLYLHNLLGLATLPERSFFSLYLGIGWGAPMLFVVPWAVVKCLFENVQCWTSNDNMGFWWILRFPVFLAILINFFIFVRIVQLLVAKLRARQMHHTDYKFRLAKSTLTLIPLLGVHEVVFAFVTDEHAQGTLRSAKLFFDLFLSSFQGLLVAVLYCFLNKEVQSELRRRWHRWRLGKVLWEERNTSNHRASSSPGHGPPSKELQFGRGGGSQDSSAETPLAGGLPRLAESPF

Row | Binder | EC50 GlucR, CRE luciferase reporter gene assay in BHK cells (human glucagon receptor) [nM] | EC50 GLP-1R, CRE luciferase reporter gene assay in BHK cells (human GLP-1 receptor [1]) [nM] | IC50 (human GLP-1 receptor [2]) [nM]
1 | H[Aib]QGTFTSDLSKYLDSRRARDFVQWLLK([γGlu-γGlu-AEEA-AEEA-γGlu-C18 diacid])T-NH2 (N-terminus assumed; SMILES CC(C)C[C@H](NC(=O)[C@H](Cc1ccc(O)cc1)NC(=O)[C@H](CCCCN)NC(=O)[C@H](CO)NC(=O)[C@H](CC(C)C)NC(=O)[C@H](CC(=O)O)NC(=O)[C@H](CO)NC(=O)[C@@H](NC(=O)[C@H](Cc1ccccc1)NC(=O)[C@@H](NC(=O)CNC(=O)[C@H](CCC(N)=O)NC(=O)C(C)(C)NC(=O)[C@@H](N)Cc1c[nH]cn1)[C@@H](C)O)[C@@H](C)O)C(=O)N[C@@H](CC(=O)O)C(=O)N[C@@H](CO)C(=O)N[C@@H](CCCNC(=N)N)C(=O)N[C@@H](CCCNC(=N)N)C(=O)N[C@@H](C)C(=O)N[C@@H](CCCNC(=N)N)C(=O)N[C@@H](CC(=O)O)C(=O)N[C@@H](Cc1ccccc1)C(=O)N[C@H](C(=O)N[C@@H](CCC(N)=O)C(=O)N[C@@H](Cc1c[nH]c2ccccc12)C(=O)N[C@@H](CC(C)C)C(=O)N[C@@H](CC(C)C)C(=O)N[C@@H](CCCCNC(=O)CC[C@H](NC(=O)CC[C@H](NC(=O)COCCOCCNC(=O)COCCOCCNC(=O)CC[C@H](NC(=O)CCCCCCCCCCCCCCCCC(=O)O)C(=O)O)C(=O)O)C(=O)O)C(=O)N[C@H](C(N)=O)[C@@H](C)O)C(C)C) | 0.016 | 0.004 | –
2 | H[Aib]QGTFTSDLSKYLDSRRARDFVK([γGlu-γGlu-AEEA-AEEA-γGlu-C18 diacid])WLLST-NH2 (N-terminus assumed; SMILES CC(C)C[C@H](NC(=O)[C@H](Cc1ccc(O)cc1)NC(=O)[C@H](CCCCN)NC(=O)[C@H](CO)NC(=O)[C@H](CC(C)C)NC(=O)[C@H](CC(=O)O)NC(=O)[C@H](CO)NC(=O)[C@@H](NC(=O)[C@H](Cc1ccccc1)NC(=O)[C@@H](NC(=O)CNC(=O)[C@H](CCC(N)=O)NC(=O)C(C)(C)NC(=O)[C@@H](N)Cc1c[nH]cn1)[C@@H](C)O)[C@@H](C)O)C(=O)N[C@@H](CC(=O)O)C(=O)N[C@@H](CO)C(=O)N[C@@H](CCCNC(=N)N)C(=O)N[C@@H](CCCNC(=N)N)C(=O)N[C@@H](C)C(=O)N[C@@H](CCCNC(=N)N)C(=O)N[C@@H](CC(=O)O)C(=O)N[C@@H](Cc1ccccc1)C(=O)N[C@H](C(=O)N[C@@H](CCCCNC(=O)CC[C@H](NC(=O)CC[C@H](NC(=O)COCCOCCNC(=O)COCCOCCNC(=O)CC[C@H](NC(=O)CCCCCCCCCCCCCCCCC(=O)O)C(=O)O)C(=O)O)C(=O)O)C(=O)N[C@@H](Cc1c[nH]c2ccccc12)C(=O)N[C@@H](CC(C)C)C(=O)N[C@@H](CC(C)C)C(=O)N[C@@H](CO)C(=O)N[C@H](C(N)=O)[C@@H](C)O)C(C)C) | 0.06 | 0.006 | –
3 | H[Aib]QGTFTSDLSKYLDTRRAQDFVRWLLSK([γGlu-γGlu-AEEA-AEEA-γGlu-C18 diacid])-NH2 (N-terminus assumed; SMILES CC(C)C[C@H](NC(=O)[C@H](CC(C)C)NC(=O)[C@H](Cc1c[nH]c2ccccc12)NC(=O)[C@H](CCCNC(=N)N)NC(=O)[C@@H](NC(=O)[C@H](Cc1ccccc1)NC(=O)[C@H](CC(=O)O)NC(=O)[C@H](CCC(N)=O)NC(=O)[C@H](C)NC(=O)[C@H](CCCNC(=N)N)NC(=O)[C@H](CCCNC(=N)N)NC(=O)[C@@H](NC(=O)[C@H](CC(=O)O)NC(=O)[C@H](CC(C)C)NC(=O)[C@H](Cc1ccc(O)cc1)NC(=O)[C@H](CCCCN)NC(=O)[C@H](CO)NC(=O)[C@H](CC(C)C)NC(=O)[C@H](CC(=O)O)NC(=O)[C@H](CO)NC(=O)[C@@H](NC(=O)[C@H](Cc1ccccc1)NC(=O)[C@@H](NC(=O)CNC(=O)[C@H](CCC(N)=O)NC(=O)C(C)(C)NC(=O)[C@@H](N)Cc1c[nH]cn1)[C@@H](C)O)[C@@H](C)O)[C@@H](C)O)C(C)C)C(=O)N[C@@H](CO)C(=O)N[C@@H](CCCCNC(=O)CC[C@H](NC(=O)CC[C@H](NC(=O)COCCOCCNC(=O)COCCOCCNC(=O)CC[C@H](NC(=O)CCCCCCCCCCCCCCCCC(=O)O)C(=O)O)C(=O)O)C(=O)O)C(N)=O) | 0.19 | 0.02 | –
4 | H[Aib]QGTFTSDLSKYLDSRRARK([γGlu-γGlu-AEEA-AEEA-γGlu-C18 diacid])FVQWLLST-NH2 (N-terminus assumed; SMILES CC(C)C[C@H](NC(=O)[C@H](Cc1ccc(O)cc1)NC(=O)[C@H](CCCCN)NC(=O)[C@H](CO)NC(=O)[C@H](CC(C)C)NC(=O)[C@H](CC(=O)O)NC(=O)[C@H](CO)NC(=O)[C@@H](NC(=O)[C@H](Cc1ccccc1)NC(=O)[C@@H](NC(=O)CNC(=O)[C@H](CCC(N)=O)NC(=O)C(C)(C)NC(=O)[C@@H](N)Cc1c[nH]cn1)[C@@H](C)O)[C@@H](C)O)C(=O)N[C@@H](CC(=O)O)C(=O)N[C@@H](CO)C(=O)N[C@@H](CCCNC(=N)N)C(=O)N[C@@H](CCCNC(=N)N)C(=O)N[C@@H](C)C(=O)N[C@@H](CCCNC(=N)N)C(=O)N[C@@H](CCCCNC(=O)CC[C@H](NC(=O)CC[C@H](NC(=O)COCCOCCNC(=O)COCCOCCNC(=O)CC[C@H](NC(=O)CCCCCCCCCCCCCCCCC(=O)O)C(=O)O)C(=O)O)C(=O)O)C(=O)N[C@@H](Cc1ccccc1)C(=O)N[C@H](C(=O)N[C@@H](CCC(N)=O)C(=O)N[C@@H](Cc1c[nH]c2ccccc12)C(=O)N[C@@H](CC(C)C)C(=O)N[C@@H](CC(C)C)C(=O)N[C@@H](CO)C(=O)N[C@H](C(N)=O)[C@@H](C)O)C(C)C) | 0.097 | 0.044 | –
5 | H[Aib]HGTFTSDLSKYLESRRAREFVQWLLK([γGlu-AEEA-AEEA-γGlu-γGlu-C18 diacid])T-NH2 (N-terminus assumed; SMILES CC(C)C[C@H](NC(=O)[C@H](Cc1ccc(O)cc1)NC(=O)[C@H](CCCCN)NC(=O)[C@H](CO)NC(=O)[C@H](CC(C)C)NC(=O)[C@H](CC(=O)O)NC(=O)[C@H](CO)NC(=O)[C@@H](NC(=O)[C@H](Cc1ccccc1)NC(=O)[C@@H](NC(=O)CNC(=O)[C@H](Cc1c[nH]cn1)NC(=O)C(C)(C)NC(=O)[C@@H](N)Cc1c[nH]cn1)[C@@H](C)O)[C@@H](C)O)C(=O)N[C@@H](CCC(=O)O)C(=O)N[C@@H](CO)C(=O)N[C@@H](CCCNC(=N)N)C(=O)N[C@@H](CCCNC(=N)N)C(=O)N[C@@H](C)C(=O)N[C@@H](CCCNC(=N)N)C(=O)N[C@@H](CCC(=O)O)C(=O)N[C@@H](Cc1ccccc1)C(=O)N[C@H](C(=O)N[C@@H](CCC(N)=O)C(=O)N[C@@H](Cc1c[nH]c2ccccc12)C(=O)N[C@@H](CC(C)C)C(=O)N[C@@H](CC(C)C)C(=O)N[C@@H](CCCCNC(=O)CC[C@H](NC(=O)COCCOCCNC(=O)COCCOCCNC(=O)CC[C@H](NC(=O)CC[C@H](NC(=O)CCCCCCCCCCCCCCCCC(=O)O)C(=O)O)C(=O)O)C(=O)O)C(=O)N[C@H](C(N)=O)[C@@H](C)O)C(C)C) | 0.0048 | 0.0357 | 1.4
6 | H[Aib]QGTFTSDLSKYLESKRAREFVQWLLK([γGlu-γGlu-Ser-Glu-Ser-γGlu-γGlu-C18 diacid])T-NH2 | – | 0.004 | 0.2
7 | H[Aib]QGTFTSDLSKYLDKRRAEDFVQWLLSK([γGlu-γGlu-AEEA-AEEA-γGlu-C18 diacid])-NH2 (N-terminus assumed; SMILES CC(C)C[C@H](NC(=O)[C@H](CC(C)C)NC(=O)[C@H](Cc1c[nH]c2ccccc12)NC(=O)[C@H](CCC(N)=O)NC(=O)[C@@H](NC(=O)[C@H](Cc1ccccc1)NC(=O)[C@H](CC(=O)O)NC(=O)[C@H](CCC(=O)O)NC(=O)[C@H](C)NC(=O)[C@H](CCCNC(=N)N)NC(=O)[C@H](CCCNC(=N)N)NC(=O)[C@H](CCCCN)NC(=O)[C@H](CC(=O)O)NC(=O)[C@H](CC(C)C)NC(=O)[C@H](Cc1ccc(O)cc1)NC(=O)[C@H](CCCCN)NC(=O)[C@H](CO)NC(=O)[C@H](CC(C)C)NC(=O)[C@H](CC(=O)O)NC(=O)[C@H](CO)NC(=O)[C@@H](NC(=O)[C@H](Cc1ccccc1)NC(=O)[C@@H](NC(=O)CNC(=O)[C@H](CCC(N)=O)NC(=O)C(C)(C)NC(=O)[C@@H](N)Cc1c[nH]cn1)[C@@H](C)O)[C@@H](C)O)C(C)C)C(=O)N[C@@H](CO)C(=O)N[C@@H](CCCCNC(=O)CC[C@H](NC(=O)CC[C@H](NC(=O)COCCOCCNC(=O)COCCOCCNC(=O)CC[C@H](NC(=O)CCCCCCCCCCCCCCCCC(=O)O)C(=O)O)C(=O)O)C(=O)O)C(N)=O) | 0.599 | 0.028 | –
